The record followed here is US20250034267A1 (published 2025).

For assay [1], the target named is T1, CD25 (as used on the Carterra LSA) (Homo sapiens (Human), UniProt P01589 22-240).
T1 sequence: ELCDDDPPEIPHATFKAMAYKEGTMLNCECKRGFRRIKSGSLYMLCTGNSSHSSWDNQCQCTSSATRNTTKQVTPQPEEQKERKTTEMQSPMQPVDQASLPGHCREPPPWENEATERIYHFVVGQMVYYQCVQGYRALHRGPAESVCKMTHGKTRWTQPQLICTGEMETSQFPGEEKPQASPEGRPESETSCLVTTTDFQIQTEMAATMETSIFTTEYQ
The assay can be described thus: Carterra LSA binding kinetics; KD SD 1.27 nM.

Assay [2] deals with T2, CD25 endogenously expressed on SUDHL-1 human lymphoma cell line and induced human Treg (iTreg) (human, UniProt P01589 22-272).
T2 sequence (looked up): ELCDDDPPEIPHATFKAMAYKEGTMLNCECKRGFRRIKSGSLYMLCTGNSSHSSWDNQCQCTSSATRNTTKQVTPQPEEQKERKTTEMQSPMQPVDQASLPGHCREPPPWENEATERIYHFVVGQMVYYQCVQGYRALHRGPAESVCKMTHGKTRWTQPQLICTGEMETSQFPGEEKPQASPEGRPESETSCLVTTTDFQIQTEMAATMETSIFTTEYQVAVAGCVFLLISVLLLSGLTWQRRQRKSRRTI
The assay is described as follows: cell-based or functional assay.

Assay [3] concerns the target T2, CD25 endogenously expressed on SUDHL-1 …. The assay is described as follows: flow cytometry on SUDHL-1 cells; average of n>=6; SD 38.12.
In assay [4] the target is T3, human IL2R on HEK blue human IL2R overexpressing cell line (human, UniProt P01589 22-272; P14784 27-551; P31785 23-369).
T3 sequence (looked up) 1: T2 sequence (looked up)
T3 sequence (looked up) 2: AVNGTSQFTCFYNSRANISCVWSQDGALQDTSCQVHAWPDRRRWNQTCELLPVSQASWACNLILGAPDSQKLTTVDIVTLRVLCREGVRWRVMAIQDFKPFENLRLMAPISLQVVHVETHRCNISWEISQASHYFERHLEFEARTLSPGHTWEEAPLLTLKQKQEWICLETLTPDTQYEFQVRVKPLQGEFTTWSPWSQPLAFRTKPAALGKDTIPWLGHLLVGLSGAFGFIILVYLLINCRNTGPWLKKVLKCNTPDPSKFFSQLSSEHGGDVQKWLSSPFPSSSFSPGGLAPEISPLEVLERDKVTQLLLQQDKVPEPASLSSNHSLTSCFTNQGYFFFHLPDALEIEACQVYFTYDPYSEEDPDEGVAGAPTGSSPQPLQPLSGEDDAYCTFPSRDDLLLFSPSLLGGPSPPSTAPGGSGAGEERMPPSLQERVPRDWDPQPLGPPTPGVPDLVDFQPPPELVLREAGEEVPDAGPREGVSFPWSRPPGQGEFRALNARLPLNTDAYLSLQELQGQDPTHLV
T3 sequence (looked up) 3: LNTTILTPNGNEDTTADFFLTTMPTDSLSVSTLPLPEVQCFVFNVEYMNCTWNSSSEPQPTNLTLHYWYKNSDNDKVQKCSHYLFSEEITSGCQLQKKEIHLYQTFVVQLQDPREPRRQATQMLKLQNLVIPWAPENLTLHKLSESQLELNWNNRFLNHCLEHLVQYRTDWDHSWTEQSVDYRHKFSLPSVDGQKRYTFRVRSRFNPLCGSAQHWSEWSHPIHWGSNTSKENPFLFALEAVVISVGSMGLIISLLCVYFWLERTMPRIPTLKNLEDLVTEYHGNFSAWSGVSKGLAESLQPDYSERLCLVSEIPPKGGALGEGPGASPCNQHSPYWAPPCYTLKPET
The assay is described as follows: cell-based or functional assay.

Assay [5] deals with T2, CD25 endogenously expressed on SUDHL-1 …. The assay can be described thus: cell-based or functional assay. This is another data set of the same source.
Assay [6] deals with T4, cynomolgus CD25 (Sino Biologicals, 90265-C08H) (cynomolgus, UniProt H6WS54 22-240).
T4 construct: Bought recombinant protein coated on ELISA plates; also called cynos monkey CD25; immobilized cynomolgus CD25
T4 sequence: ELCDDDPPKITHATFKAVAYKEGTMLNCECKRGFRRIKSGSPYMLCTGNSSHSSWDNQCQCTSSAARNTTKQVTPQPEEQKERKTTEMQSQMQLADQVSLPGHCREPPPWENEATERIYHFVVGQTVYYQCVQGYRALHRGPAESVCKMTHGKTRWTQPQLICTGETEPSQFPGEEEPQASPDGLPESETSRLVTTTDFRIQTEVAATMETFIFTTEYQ
The assay can be described thus: ELISA, plate coated with cynomolgus CD25; average of n>=3; SD 9.8. (In general: ELISA stands for enzyme-linked immunosorbent assay.)

Assay [7] concerns the target T2, CD25 endogenously expressed on SUDHL-1 …. The assay can be described thus: flow cytometry on iTreg cells; average of n=3; SD 83.94. In general terms: Flow cytometry measures light scatter and fluorescence of single cells or particles in a stream.
Assay [8] concerns the target T5, human CD25 (Sino Biologicals, 10165-H08H) (human, UniProt P01589 22-213).
T5 construct: Bought recombinant protein coated on ELISA plates; also called immobilized human CD25; IL2RA
T5 sequence (looked up): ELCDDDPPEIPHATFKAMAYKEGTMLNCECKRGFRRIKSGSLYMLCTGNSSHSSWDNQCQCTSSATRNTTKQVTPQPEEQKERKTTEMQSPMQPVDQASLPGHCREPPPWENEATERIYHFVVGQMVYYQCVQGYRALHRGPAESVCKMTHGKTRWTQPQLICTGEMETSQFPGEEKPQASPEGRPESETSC
The assay is described as follows: ELISA, plate coated with human CD25; average of n>=3; SD 3.2.

For assay [9], the target named is T1, CD25 (as used on the Carterra LSA). The assay can be described thus: Carterra LSA binding kinetics.
For assay [10], the target named is T2, CD25 endogenously expressed on SUDHL-1 …. The assay is described as follows: flow cytometry on iTreg cells; average of n=3; SD 44.59.
The target in assay [11] is T5, human CD25 (Sino Biologicals, …). The assay can be described thus: ELISA, plate coated with human CD25; average of n>=3; SD 4.9.
The target in assay [12] is T2, CD25 endogenously expressed on SUDHL-1 …. The assay can be described thus: flow cytometry on SUDHL-1 cells; average of n>=6; SD 26.2.
Assay [13] deals with T4, cynomolgus CD25 (Sino Biologicals, …). The assay is described as follows: ELISA, plate coated with cynomolgus CD25; average of n>=3; SD 19.5.
The target of assay [14] is T1, CD25 (as used on the Carterra LSA). The assay is described as follows: Carterra LSA binding kinetics; KD SD 0.37 nM.
Assay [15] deals with T2, CD25 endogenously expressed on SUDHL-1 …. The assay can be described thus: flow cytometry on iTreg cells; average of n=3; SD 40.50.
The target in assay [16] is T1, CD25 (as used on the Carterra LSA). The assay can be described thus: Carterra LSA binding kinetics; KD SD 1.03 nM.
Assay [17] addresses T5, human CD25 (Sino Biologicals, …). The assay can be described thus: ELISA, plate coated with human CD25; average of n>=3; SD 2.5.
The target in assay [18] is T2, CD25 endogenously expressed on SUDHL-1 …. The assay can be described thus: flow cytometry on SUDHL-1 cells; average of n>=6; SD 39.9.
The target of assay [19] is T4, cynomolgus CD25 (Sino Biologicals, …). The assay can be described thus: ELISA, plate coated with cynomolgus CD25; average of n>=3; SD 12.3.
Assay [20] concerns the target T2, CD25 endogenously expressed on SUDHL-1 …. The assay can be described thus: flow cytometry on SUDHL-1 cells; average of n>=6; SD 39.71.
The target in assay [21] is T4, cynomolgus CD25 (Sino Biologicals, …). The assay can be described thus: ELISA, plate coated with cynomolgus CD25; average of n>=3; SD 8.8.
Assay [22] addresses T5, human CD25 (Sino Biologicals, …). The assay can be described thus: ELISA, plate coated with human CD25; average of n>=3; SD 3.3.
Assay [23] addresses T1, CD25 (as used on the Carterra LSA). The assay is described as follows: Carterra LSA binding kinetics; KD SD 0.69 nM.
Assay [24] has as its target T2, CD25 endogenously expressed on SUDHL-1 …. The assay can be described thus: flow cytometry on iTreg cells; average of n=3; SD 63.88.

B1: IBIO-101-plant-afuc (SD-889825-PC-A; IBIO-101, c-105 plant Afucosylated) (antibody, human IgG1, kappa, V domains shown)
VH: QVQLVQSGAEVKKPGASLKISCKGSGYTFTDYAMHWVRQAPGQGLEWIGVISTYSGDAIYAQKFQGRATMTVDTSTSTAYLELSSLRSEDTAVYYCARGVTFDYWGQGTTVTVSS
VL: DIQMTQSPSSLSASVGDRVTITCRASQDISNYLEWYQQKPGKAPKLLVYNAKTLAEGVPSRFSGSGSGTDFTLTISSLQPEDFGTYYCQHHYDTPYTFGQGTKLEIKR
notes: Same antibody made in C105 deltaXT/FT N. benthamiana plants, glycans without fucose and xylose; also called RTX-003; hD11
As usually defined, the Kd is the constant that tells how readily two partners part at equilibrium. A lower Kd goes with higher affinity. Broadly, the EC50 is the concentration that produces a half-maximal response. High values mean lower potency in that assay, low ones higher potency in that assay. The koff is a measure of how fast the partners let go of each other. High values mean a short-lived complex, low ones a long-lived complex. In general, kon refers to the rate constant with which the complex forms. Higher therefore signals faster complex formation. In [1], B1 had a Kd of 4.27 nM. In addition, the “EC50, SUDHL-1/NFAT CD16 ADCC reporter assay” value in assay [2] turned out to be 0.0089 µg/mL. Besides, the EC50 was determined as 0.123 µg/mL in assay [3], 0.0424 µg/mL in [6], 0.218 µg/mL in assay [7] and 0.0174 µg/mL in assay [8]. For the same molecule, in assay [4], the “EC50, IL-2 reporter HEK293 pSTAT5 assay (activation of STAT5 by IL2 in presence of the antibody)” value (“EC50, IL-2 reporter HEK293 pSTAT5 assay” for short) was 0.17 ng/ml. In addition, in [5], the “EC50, iTreg/NFAT CD16 ADCC reporter assay” value is 0.00714 µg/mL. In [9], this molecule gave a koff of 0.00207 s⁻¹. Besides, the kon in assay [9] worked out at 492000 M⁻¹ s⁻¹.

B2: IBIO-101-CHO-WT (SD-889825-CW-A; IBIO-101, wild-type CHO cells) (antibody, human IgG1, kappa, V domains shown)
VH: B1 VH
VL: B1 VL
notes: The signal peptide is marked only by bold print (lost here); also called RTX-003; hD11
Turning to B2, the EC50 amounted to 0.223 µg/mL in assay [10], 0.0199 µg/mL in assay [11], 0.123 µg/mL in assay [12] and 0.0544 µg/mL in assay [13]. Moreover, the “EC50, SUDHL-1/NFAT CD16 ADCC reporter assay” value in [2] is 0.0845 µg/mL. The “EC50, IL-2 reporter HEK293 pSTAT5 assay” value in assay [4] is 0.17 ng/ml. Moreover, in [5], the “EC50, iTreg/NFAT CD16 ADCC reporter assay” value is 0.0538 µg/mL. The koff in [9] worked out at 0.00192 s⁻¹. This molecule also had a kon in assay [9] of 471000 M⁻¹ s⁻¹. Further, in assay [14], the dissociation constant Kd worked out at 4.1 nM.

B3: IBIO-101-CHO-afuc (SD-889825-CG-A; IBIO-101, CHO cells Afucosylated) (antibody, human IgG1, kappa, V domains shown)
VH: B1 VH
VL: B1 VL
notes: Same antibody made in CHO cells, afucosylated glycans; also called RTX-003; hD11
For B3, the EC50 in [15] was 0.219 µg/mL; in [17], 0.0156 µg/mL; in [18], 0.126 µg/mL; in [19], 0.0431 µg/mL. For the same molecule, in assay [2], the “EC50, SUDHL-1/NFAT CD16 ADCC reporter assay” value was determined as 0.0072 µg/mL. In addition, the “EC50, IL-2 reporter HEK293 pSTAT5 assay” value in assay [4] worked out at 0.17 ng/ml. This molecule returned a Kd in assay [16] of 3.9 nM. Further, the “EC50, iTreg/NFAT CD16 ADCC reporter assay” value in assay [5] came out at 0.00471 µg/mL. In assay [9], this molecule returned a koff of 0.00119 s⁻¹. The same molecule showed a kon in assay [9] of 499000 M⁻¹ s⁻¹.

B4: IBIO-101-plant-WT (SD-889825-PW-A; IBIO-101, wild-type plant) (antibody, human IgG1, kappa, V domains shown)
VH: B1 VH
VL: B1 VL
notes: Same antibody made in wild-type Nicotiana benthamiana plants; also called RTX-003; hD11
Consider B4, for which the EC50 was found to be 0.126 µg/mL in [20], 0.0439 µg/mL in assay [21], 0.016 µg/mL in [22] and 0.235 µg/mL in assay [24]. The “EC50, SUDHL-1/NFAT CD16 ADCC reporter assay” value in [2] came to 0.0325 µg/mL. Moreover, in assay [4], the “EC50, IL-2 reporter HEK293 pSTAT5 assay” value turned out to be 0.21 ng/ml. The “EC50, iTreg/NFAT CD16 ADCC reporter assay” value in [5] turned out to be 0.0303 µg/mL. The same molecule displayed a dissociation constant Kd in [23] of 4.2 nM. Moreover, in assay [9], the koff worked out at 0.0012 s⁻¹. In [9], the kon worked out at 485000 M⁻¹ s⁻¹.
